# Data reported in patent US20200155643.
# T1: Recombinant human protein C inhibitor (PCI, SERPINA5), P05154
# T1 chain: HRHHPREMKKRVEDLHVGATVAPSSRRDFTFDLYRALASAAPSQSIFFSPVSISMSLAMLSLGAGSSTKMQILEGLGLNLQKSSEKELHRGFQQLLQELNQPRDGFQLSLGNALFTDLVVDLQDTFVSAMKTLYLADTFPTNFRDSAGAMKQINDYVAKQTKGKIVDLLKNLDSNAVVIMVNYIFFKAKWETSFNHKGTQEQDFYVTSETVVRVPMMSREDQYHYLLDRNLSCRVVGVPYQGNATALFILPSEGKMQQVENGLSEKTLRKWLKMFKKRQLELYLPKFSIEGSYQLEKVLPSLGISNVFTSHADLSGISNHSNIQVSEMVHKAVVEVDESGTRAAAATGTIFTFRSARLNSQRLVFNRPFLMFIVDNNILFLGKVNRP
# B1: Recombinant human matriptase (protein)
# chain: GSDEKDCDCGLRSFTRQARVVGGTDADEGEWPWQVSLHALGQGHICGASLISPNWLVSAAHCYIDDRGFRYSDPTQWTAFLGLHDQSQRSAPGVQERRLKRIISHPFFNDFTFDYDIALLELEKPAEYSSMVRPICLPDASHVFPAGKAIWVTGWGHTQYGGTGALILQKGEIRVINQTTCENLLPQQITPRMMCVGFLSGGVDSCQGDSGGPLSSVEADGRIFQAGVVSWGDGCAQRNKPGVYTRLPLFRDWIKENTGV
# Biological target: T1, Recombinant human protein C inhibitor …
protein,measurement,value
B1,cleavage of PCI (anti-PCI immunoblot),resulted in the appearance of cleaved forms of PCI
